B1: hL1ORF1p-ΔNTR (human L1ORF1p without the NTR, GPHMS53-M338) (domain or fragment)
chain: GPHMSELREDIQTKGKEVENFEKNLEECITRITNTEKCLKELMELKTKARELREECRSLRSRCDQLEERVSAAEDEINEIKREGKFREKRIKRNEQSLQEIWDYVKRPNLRLIGVPESDVENGTKLENTLQDIIQENFPNLARQANVQIQEIQRTPQRYSSRRATPRHIIVRFTKVEMKEKMLRAAREKGRVTLKGKPIRLTADLSAETLQARREWGPIFNILKEKNFQPRISYPAKLSFISEGEIKYFIDKQMLRDFVTTRPALKELLKEALNMERNNRYQPLQNHAKM
notes: residues printed before S53 in the construct's description (GPHMS53-M338); not from L1ORF1p; also called remainder of human L1ORF1p; truncated trimer; not shown: His6, N-terminal, cleaved
B2: hL1ORF1p-cc (coiled coil domain of human L1ORF1p, GPHMS53-Y152) (domain or fragment)
chain: GPHMSELREDIQTKGKEVENFEKNLEECITRITNTEKCLKELMELKTKARELREECRSLRSRCDQLEERVSAAEDEINEIKREGKFREKRIKRNEQSLQEIWDY
notes: residues printed before S53 in the construct's description (GPHMS53-Y152); not from L1ORF1p; human LINE-1 ORF1 protein (L1ORF1p) of the L1.3 element, residues S53-Y152, amplified from a plasmid with the M121A/M125I/M128I triple mutation; The M of GPHM probably stands at position 52 in place of Y52 (the structure is described as residues 52-152); also called L1ORF1p coiled coil domain; coiled coil …

Columns and labels:
[1] = target: hL1ORF1p-Δcons (non-conserved N-terminal portion of human L1ORF1p, GPHM1-E103) (human) (UniProt Q9UN81); test: SEC-MALS; hL1ORF1p-Δcons at 5.2 mM, Superdex 75 (10/300 GL), gel filtration buffer; monomer to dimer
[2] = target: the molecule itself; test: SEC-MALS; Superdex 200 (10/300 GL), gel filtration buffer (10 mM HEPES pH 7.5, 300 mM NaCl, 1 mM DTT)

Molecule | stoichiometry N [1] | stoichiometry N [2]
hL1ORF1p-Δcons (non-conserved N-terminal portion of human L1ORF1p, GPHM1-E103) (from UniProt Q9UN81 1-103) (domain or fragment) | 2 | 
B1 |  | 3
B2 |  | 3
